Results from PMC11931385, “Structural and functional analysis of cancer-associated missense variants in the retinoblastoma protein pocket domain” (The Journal of Biological Chemistry, 2025).
Residue numbers refer to the chain shown, from its start. Names and notes keep the numbering of the source. No end group written: not given here. TMR = tetramethyl rhodamine dye

T1: Rb^P E675Q (human, UniProt P06400 380-788, E675Q)
T1 construct: also called variant 56
T1 sequence (looked up): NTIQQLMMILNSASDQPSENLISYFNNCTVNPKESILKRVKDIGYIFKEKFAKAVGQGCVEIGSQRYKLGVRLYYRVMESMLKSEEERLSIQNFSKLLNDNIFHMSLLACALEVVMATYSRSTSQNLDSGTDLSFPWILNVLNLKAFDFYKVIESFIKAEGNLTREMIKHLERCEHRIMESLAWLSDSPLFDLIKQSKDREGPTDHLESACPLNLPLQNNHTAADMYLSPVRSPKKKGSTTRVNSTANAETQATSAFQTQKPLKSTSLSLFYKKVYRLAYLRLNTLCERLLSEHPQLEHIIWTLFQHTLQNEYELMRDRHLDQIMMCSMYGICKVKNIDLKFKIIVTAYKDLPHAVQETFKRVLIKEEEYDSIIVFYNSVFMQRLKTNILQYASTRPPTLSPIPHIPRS

T2: Rb^P T738I (human, UniProt P06400 380-788, T738I)
T2 construct: also called variant 67
T2 sequence (looked up): T1 sequence (looked up) with Q296E, T359I

T3: Rb^P P595L (human, UniProt P06400 380-788, P595L)
T3 construct: also called variant 35
T3 sequence (looked up): T1 sequence (looked up) with P216L, Q296E

T4: Rb^P L572I (human, UniProt P06400 380-788, L572I)
T4 construct: also called variant 31
T4 sequence (looked up): T1 sequence (looked up) with L193I, Q296E

T5: Rb^P S443L (human, UniProt P06400 380-788, S443L)
T5 construct: also called variant 2
T5 sequence (looked up): T1 sequence (looked up) with S64L, Q296E

B1: TMR-E2F1^TD, peptide of the E2F1 transactivation domain (peptide)
peptide: {TMR}-GEGIRDLFDCDFGDLTPLD
notes: also called E2F^TD; source: synthetic peptide, bought: GenScript
B2: TMR-E7^LxCxE, LxCxE peptide of the E7 oncoprotein from HPV (peptide)
peptide: DLYCYEQLN
modifications: also: TMR label, position not given here
notes: source: synthetic peptide, bought: GenScript

What was measured:
Assay in all cases: fluorescence polarisation; 37 °C, after the 25 °C reading ramped over 7 min to 37 °C and 2 min incubation; unlabeled Rb^P against 1.5 nM TMR-E2F1^TD or 7.5 nM TMR-E7^LxCxE; 25 mM Tris pH 8.0, 200 mM NaCl, 1 mM DTT, 0.1% Tween-20; apparent Kd
Conditions in all cases: both partners purified
Rb^P E675Q = molecular target: T1, Rb^P E675Q
Rb^P T738I = molecular target: T2, Rb^P T738I
Rb^P P595L = molecular target: T3, Rb^P P595L
Rb^P L572I = molecular target: T4, Rb^P L572I
Rb^P S443L = molecular target: T5, Rb^P S443L

Binder	Kd (Rb^P E675Q) [nM]	Kd (Rb^P T738I) [nM]	Kd (Rb^P P595L) [nM]	Kd (Rb^P L572I) [nM]	Kd (Rb^P S443L) [nM]
B1	71	179	83	87	55
B2	46	151	32	15	21
